Experiments:
Format in all cases: cell-based, human
CD34+ HSPCs [1] = assay: Definitive screening design cytokine screen for proT cell differentiation and expansion; details: for effect on total live cells, CD7+ lymphocytes and CD7+CD5+ cells relative to the control condition: day 0-7 and day 7-14, control SCF, FLT3L, TPO, IL-7 at 20 ng/ml each, linear regression model
Method: For experiments 7 days or longer, HSPCs were seeded at 63-125 cells/mm^2 (equivalent to 2000-4000 cells/well of a 96-well plate) on DL4+VCAM-1-coated surfaces. Experiments shorter than 7 days (CFSE and qPCR) were seeded at 470-780 cells/mm^2 (equivalent to 15,000-25,000 cells/well of a 96-well plate) to provide enough cells for analysis. Cells were cultured in 100 μl/well (32 μl/well for 384-well plate) of Iscove's Modified Eagle Medium (IMDM) supplemented with 20% bovine serum albumin, insulin, and transferrin (BIT 9500) serum substitute (Stemcell Technologies), 1 μg/ml low-density lipoprotein (LDL; Stemcell Technologies), 60 μM ascorbic acid (Sigma), 24 μM 2-mercaptoethanol (Sigma), and 1% penicillin-streptomycin (P/S; Invitrogen). The cytokines used in control condition were SCF, FLT3L, TPO, and IL-7 (also known as the “4F cytokines”, all of which were obtained from R&D Systems), each at a concentration of 20 ng/ml or 100 ng/ml as indicated in the text. All other cytokines were purchased from R&D Systems and used in the combinations and concentrations indicated in the text. For certain experiments, the γ-secretase inhibitor (2S)-N-[(3,5-Difluorophenyl)acetyl]-L-alanyl-2-phenyl] glycine 1,1-dimethylethyl ester (DAPT) or dimethyl sulfoxide (DMSO) was added to media at the concentrations indicated in the text.
For screening experiments, a Definitive Screening Design (DSD)^7 was employed where each factor was tested at three levels (scaled to [−1,0,1]). The design included at least 2m+1 runs, where m is the number of factors, comprised of m fold-over pairs plus a center run (with all factors at level 0) and with orthogonal blocking of UCB donors.^8
Absolute cell numbers were acquired for each cell population of interest and, for initial experiments, a z-score was calculated relative to the control condition:
where SE(⋅) is the standard error. Control conditions were the cytokines used previously in the DL4+VCAM-1 assay as in Shukla et al.^6 Stepwise regression using the minimum Bayesian information criterion method was used to determine significant terms and, from this, a linear regression model of z-scores was constructed that included main and quadratic effects and two-factor interactions. This provided a better- or worse-than estimate for each factor compared to the control. The DSD layout and regression model were constructed using JMP 13 software (SAS). Follow up experiments measuring the dose response of top factors, the regression model was fit to the absolute cell count. Values were square root or log-transformed as necessary to ensure that residuals were approximately normal before fitting the regression model.
Test conditions were arranged using serial dilutions of each cytokine and laid out using an Eppendorf epMotion 5070 liquid handler in 384-well plates previously coated with DL4 and VCAM-1.
To identify factors that enhance proT cell differentiation and expansion, a two-part screen was conducted from day 0-7 and day 7-14 to separate the effects of screened molecules on HSPCs and differentiating proT cells (FIG. 1a). Screened molecules were tested at three doses each in combination using a definitive screening design (DSD) experiment and a linear regression model was fit to empirical data to estimate dose response.^7 The response to factors was measured against a control condition that contained SCF, FLT3L, TPO and IL-7 cytokines as in Shukla et al.^6 but using a lower concentration of 20 ng/ml each.
Medium gray indicates the effect of the control condition; dark gray to black indicates an effect greater than the control condition; and light gray to white indicates an effect lesser than the control condition. The size of each circle indicates the significance of the effect in the linear regression model. Combinations of factors indicate two-factor interactions (e.g., TPO*IL-1β) or quadratic effects (e.g., IL-21*IL-21) in the regression model. […] IL-3 and TNFα were selected for further investigation. […]

CD34+ HSPCs [2] = assay: TPO requirement with or without TNFα, 14-day culture; details: 14 days
Method: To assess the requirement for TPO in T lineage development, CD34+ HSPCs were analyzed by flow cytometry after 14 days in the presence or absence of TNFα, and further in the presence or absence of TPO.

HSPCs = assay: CFSE proliferation assay of HSPCs on DL4+VCAM-1
Method: To track the number of cell divisions, cells were stained with 2.5 μM CellTrace™ CFSE (ThermoFisher) in PBS and incubated at 37° C. for 8 minutes. CFSE was quenched by adding 5 times the volume of IMDM+BIT and incubating at 37° C. for 5 minutes. Cells were then resuspended in fresh media and seeded on DL4+VCAM-1 for culture. For analysis, cells were collected and stained for CD34, CD7, and CD5 surface markers as described above and analyzed using flow cytometry. Proliferation was modelled using FlowJo™ software and further analysis was performed with R.
To track the number of cell divisions in response to each of IL-3 and TNFα, the HSPCs were first stained with carboxyfluorescein succinimidyl ester (CFSE). IL-3 or TNFα were added on day 0 and the number of divisions of each cell was analyzed on days 2, 3, 4 and 5.

CD34+ HSPCs [3] = assay: IL-3, TNFα or IL-3+TNFα culture on DL4+VCAM-1, flow cytometry on day 7 and day 14; details: day 7 and day 14 (FIGS. 5d and e)
Method: For experiments 7 days or longer, HSPCs were seeded at 63-125 cells/mm^2 (equivalent to 2000-4000 cells/well of a 96-well plate) on DL4+VCAM-1-coated surfaces. Experiments shorter than 7 days (CFSE and qPCR) were seeded at 470-780 cells/mm^2 (equivalent to 15,000-25,000 cells/well of a 96-well plate) to provide enough cells for analysis. Cells were cultured in 100 μl/well (32 μl/well for 384-well plate) of Iscove's Modified Eagle Medium (IMDM) supplemented with 20% bovine serum albumin, insulin, and transferrin (BIT 9500) serum substitute (Stemcell Technologies), 1 μg/ml low-density lipoprotein (LDL; Stemcell Technologies), 60 μM ascorbic acid (Sigma), 24 μM 2-mercaptoethanol (Sigma), and 1% penicillin-streptomycin (P/S; Invitrogen). The cytokines used in control condition were SCF, FLT3L, TPO, and IL-7 (also known as the “4F cytokines”, all of which were obtained from R&D Systems), each at a concentration of 20 ng/ml or 100 ng/ml as indicated in the text. All other cytokines were purchased from R&D Systems and used in the combinations and concentrations indicated in the text. For certain experiments, the γ-secretase inhibitor (2S)-N-[(3,5-Difluorophenyl)acetyl]-L-alanyl-2-phenyl] glycine 1,1-dimethylethyl ester (DAPT) or dimethyl sulfoxide (DMSO) was added to media at the concentrations indicated in the text. […]

Molecule: SCF: cytokine stem cell factor, one of the 4F cytokines
- effect on total live cells, CD7+ lymphocytes and CD7+CD5+ cells relative to the control condition (CD34+ HSPCs [1]): string positive effects

Molecule: TPO: cytokine thrombopoietin, one of the 4F cytokines
- CD7+ lymphoid cell development after removal of TPO (CD34+ HSPCs [2]; TNFα present): not detrimental
- number of CD7+ cells after removal of TPO (CD34+ HSPCs [2]; absence of TNFα): decreased significantly
- number of CD14/33+ myeloid cells after removal of TPO (CD34+ HSPCs [2]; with or without TNFα): decreased the number of CD14/33+ myeloid cells

B1: IL-7: cytokine interleukin 7, one of the 4F cytokines (protein, UniProt P13232 26-177, looked up)
Interleukin-7: DCDIEGKDGKQYESVLMVSIDQLLDSMKEIGSNCLNNEFNFFKRHICDANKEGMFLFRAARKLRQFLKMNSTGDFDLHLLKVSEGTTILLNCTGQVKGRKPAALGEAQPTKSLEENKSLKEQKKLNDLCFLKRLLQEIKTCWNKILMGTKEH
- effect on total live cells, CD7+ lymphocytes and CD7+CD5+ cells relative to the control condition (CD34+ HSPCs [1]): string positive effects

B2: IL-3: cytokine; protein that in humans is encoded by the IL3 gene (accession P08700; SEQ ID NO: 7) (protein, listed as Homo sapiens)
chain: MSRLPVLLLLQLLVRPGLQAPMTQTTPLKTSWVNCSNMIDEIITHLKQPPLPLLDFNNLNGEDQDILMENNLRRPNLEAFNRAVKSLQNASAIESILKNLLPCLPLATAAPTRHPIHIKDGDWNEFRRKLTFYLKTLENAQAQQTTLSLAIF
- effect on total live cells, CD7+ lymphocytes and CD7+CD5+ cells relative to the control condition (CD34+ HSPCs [1]): string positive effects
- dose response of live cells, CD7+ lymphocytes and CD7+CD5+ proT cells (CD34+ HSPCs [1]; range of concentrations, n=2 UCB donors): curved response in at least one population
- average number of divisions vs control (HSPCs; CFSE, days 2-5): more divisions than the control group
- variance in the number of divisions vs control (HSPCs; CFSE, days 2-5): significantly larger variance
- CD7+ frequency vs control (HSPCs; by day 5): lower CD7+frequency than the control
- cell fraction affected (CD7− vs CD7+ cells), number of divisions (HSPCs; cytokine added on day 0, days 2-5): predominantly affecting the CD7− fraction
- upregulation of CD7 (HSPCs; days 2-5): upregulated CD7 comparably to the control
- number of CD14/33+ myeloid lineage cells, IL-3 compared with IL-3+TNFα conditions (CD34+ HSPCs [3]): similar

Reference: patent US20220403326A1, “MEDIA FORMULATIONS AND METHODS FOR PRODUCING PROGENITOR T CELLS” (priority 2019, published 2022)
